Test results as given in paper PMC8983781.

How the values were obtained:
[1] = biological target: SP-C L188Q with the site 2 mutations (human) (UniProt P11686); test: co-IP; 293T cells co-transfected with an SP-C construct and one co-chaperone (BiP co-transfected in the GRP170 experiments; 20 mM NEM in wash and lysis for ERdj5); NP-40 lysates 24 h after transfection, immunoprecipitated with anti-SP-C overnight at 4 °C, Protein A agarose, washed with buffer containing 0.4 M NaCl; co-chaperones detected by western blot; in Fig. 4 signals normalised to SP-C and expressed as percent of parental L188Q
[2] = biological target: 3HA-tagged SP-C L188Q (human) (UniProt P11686)
[3] = substrate: SP-C L188Q with the site 2 mutations (human) (UniProt P11686); test: co-IP; 293T cells co-transfected with an SP-C construct and one co-chaperone (BiP co-transfected in the GRP170 experiments; 20 mM NEM in wash and lysis for ERdj5); NP-40 lysates 24 h after transfection, immunoprecipitated with anti-SP-C overnight at 4 °C, Protein A agarose, washed with buffer containing 0.4 M NaCl; co-chaperones detected by western blot; in Fig. 4 signals normalised to SP-C and expressed as percent …

“ERdj4-3HA (mouse) (from UniProt Q9QYI6 24-222) (natural protein)” showed a percent reduction of binding against parental L188Q [1] of 70%.

“wild-type surfactant protein C (SP-C) proprotein, untagged (from UniProt P11686 1-58) (natural protein)” was tested, and the percent of wild-type SP-C that is palmitoylated (a measure of transport to the Golgi) when co-expressed with the L188Q mutant; 17.6% when expressed alone [2] was 10%.

B1: GRP170 (human) (natural protein)
chain: LAVMSVDLGSESMKVAIVKPGVPMEIVLNKESRRKTPVIVTLKENERFFGDSAASMAIKNPKATLRYFQHLLGKQADNPHVALYQARFPEHELTFDPQRQTVHFQISSQLQFSPEEVLGMVLNYSRSLAEDFAEQPIKDAVITVPVFFNQAERRAVLQAARMAGLKVLQLINDNTATALSYGVFRRKDINTTAQNIMFYDMGSGSTVCTIVTYQMVKTKEAGMQPQLQIRGVGFDRTLGGLEMELRLRERLAGLFNEQRKGQRAKDVRENPRAMAKLLREANRLKTVLSANADHMAQIEGLMDDVDFKAKVTRVEFEELCADLFERVPGPVQQALQSAEMSLDEIEQVILVGGATRVPRVQEVLLKAVGKEELGKNINADEAAAMGAVYQAAALSKAFKVKPFVVRDAVVYPILVEFTREVEEEPGIHSLKHNKRVLFSRMGPYPQRKVITFNRYSHDFNFHINYGDLGFLGPEDLRVFGSQNLTTVKLKGVGDSFKKYPDYESKGIKAHFNLDESGVLSLDRVESVFETLVEDSAEEESTLTKLGNTISSLFGGGTTPDAKENGTDTVQEEEESPAEGSKDEPGEQVELKEEAEAPVEDGSQPPPPEPKGDATPEGEKATEKENGDKSEAQKPSEKAEAGPEGVAPAPEGEKKQKPARKRRMVEEIGVELVVLDLPDLPEDKLAQSVQKLQDLTLRDLEKQEREKAANSLEAFIFETQDKLYQPEYQEVSTEEQREEISGKLSAASTWLEDEGVGATTVMLKEKLAELRKLCQGLFFRVEERKKWPERLSALDNLLNHSSMFLKGARLIPEMDQIFTEVEMTTLEKVINETWAWKNATLAEQAKLPATEKPVLLSKDIEAKMMALDREVQYLLNKAKFTKPRPRPKDKNGTRAEPPLNASASDQGEKVIPPAGQTEDAEPISEPEKVETGSEPGDTEPLELGGPGAEPEQKEQSTGQKRPLKNDEL
Molecule B1 has a percent of the binding to parental L188Q [3] of 30%.

B2: ERdj5 (mouse) (natural protein)
chain: DQNFYSLLGVSKTASSREIRQAFKKLALKLHPDKNPNNPNAHGDFLKINRAYEVLKDEDLRKKYDKYGEKGLEDNQGGQYESWSYYRYDFGIYDDDPEIITLERREFDAAVNSGELWFVNFYSPGCSHCHDLAPTWREFAKEVDGLLRIGAVNCGDDRMLCRMKGVNSYPSLFIFRSGMAAVKYNGDRSKESLVAFAMQHVRSTVTELSTGNFVNAIETAFAAGVGWLITFCSKGEDCLTSQTRLRLSGMLDGLVNVGWVDCDAQDSLCKSLDTTASTTAYFPPGATLNDREKSSVLFLNSLDAKEIYMEIIHNLPDFELLSANQLEDRLAHHRWLVFFHFGKNENANDPELKKLKTLLKNEHIQVGRFDCSSAPGICSDLYVFQPCLAVFKGQGTKEYEIHHGKKILYDILAFAKESVNSHVTTLGPQNFPASDKEPWLVDFFAPWCPPCRALLPELRKASTLLYGQLKVGTLDCTIHEGLCNMYNIQAYPTTVVFNQSSIHEYEGHHSAEQILEFIEDLRNPSVVSLTPSTFNELVKQRKHDEVWMVDFYSPWCHPCQVLMPEWKRMARTLTGLINVGSVDCQQYHSFCTQENVQRYPEIRFYPQKSSKAYQYHSYNGWNRDAYSLRSWGLGFLPQASIDLTPQTFNEKVLQGKTHWVVDFYAPWCGPCQNFAPEFELLARMIKGKVRAGKVDCQAYPQTCQKAGIKAYPSVKLYQYERAKKSIWEEQINSRDAKTIAALIYGKLETLQSQVKRNKDEL
Work on B2 yielded a percent reduction of binding against parental L188Q [3] of 30%.
